Measurements taken from patent publication US20130089555A1 (Genentech, published 2013).

How the values were obtained:
[1] = molecular target: T1, human FcRH5 on stably transfected cells (BJAB, OPM2) (human, UniProt Q96RD9 16-977); test: Scatchard, 125I-labelled antibody competed with the unlabelled same antibody on OPM2.huFcRH5 cells, 4 C; St. Error 0.150
T1 construct: Cells were transfected with pRK.CMV.PD.nbe.FcRH5 (untagged); also called huFcRH5; BJAB.huFcRH5
T1 chain: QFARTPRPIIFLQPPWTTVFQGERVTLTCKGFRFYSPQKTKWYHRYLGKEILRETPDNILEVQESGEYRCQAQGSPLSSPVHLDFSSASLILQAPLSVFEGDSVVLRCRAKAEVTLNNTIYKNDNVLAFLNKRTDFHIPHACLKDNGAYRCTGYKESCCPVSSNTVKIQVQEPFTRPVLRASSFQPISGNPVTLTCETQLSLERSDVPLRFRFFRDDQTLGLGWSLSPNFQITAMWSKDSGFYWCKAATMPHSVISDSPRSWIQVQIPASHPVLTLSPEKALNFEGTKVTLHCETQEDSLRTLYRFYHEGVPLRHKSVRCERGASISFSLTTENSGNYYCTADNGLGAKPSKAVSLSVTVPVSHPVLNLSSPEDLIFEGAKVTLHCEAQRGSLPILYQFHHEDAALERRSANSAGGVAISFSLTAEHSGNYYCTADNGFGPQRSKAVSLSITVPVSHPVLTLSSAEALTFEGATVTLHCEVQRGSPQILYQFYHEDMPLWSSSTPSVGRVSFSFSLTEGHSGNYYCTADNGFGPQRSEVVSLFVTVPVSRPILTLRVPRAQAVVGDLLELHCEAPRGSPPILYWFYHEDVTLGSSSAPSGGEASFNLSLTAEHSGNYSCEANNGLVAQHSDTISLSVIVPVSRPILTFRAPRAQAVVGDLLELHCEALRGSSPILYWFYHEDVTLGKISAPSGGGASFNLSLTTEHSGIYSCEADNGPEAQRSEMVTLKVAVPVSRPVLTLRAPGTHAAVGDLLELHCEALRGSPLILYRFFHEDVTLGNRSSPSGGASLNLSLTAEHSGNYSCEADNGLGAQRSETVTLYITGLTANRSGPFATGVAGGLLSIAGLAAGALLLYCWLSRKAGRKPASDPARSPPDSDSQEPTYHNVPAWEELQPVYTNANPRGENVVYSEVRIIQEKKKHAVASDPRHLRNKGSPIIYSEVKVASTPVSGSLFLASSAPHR
Protocol: (§1) To further determine binding of the FcRH5 murine antibodies and IgG clones, binding of iodinated IgG variants to OPM2 cells expressing human FcRH5 and SVT2 cells expressing cynomologous FcRH5, Scatchard analysis was performed.
(§2) For Scatchard analysis, 0.5 nM I¹²⁵ labeled murine or IgG clone anti-FcRH5 was competed against unlabeled murine or IgG clone anti-FcRH5, respectively, ranging from 50 to 0.02 nM (12 step 1:2 serial dilution) in the presence of a transfected OPM2 line stably expressing human-FcRH5 and a transfected SVT2 line stably expressing cynomologous-FcRH5. After a four hour incubation at 4° C., cells were washed and cell pellet counts were read by a gamma counter (1470 WIZARD Automatic Gamma Counter; Perkin Elmer, Walthem, Mass.). All points were done in triplicate and counted for 10 minutes. The average CPM was used for Kd calculation using the New Ligand (Genentech, South San Francisco, Calif.) program.

[2] = molecular target: T2, cynomolgus FcRH5 on stably transfected SVT2 cells (cynomolgus monkey); test: Scatchard, 125I-labelled antibody competed with the unlabelled same antibody on SVT2.cyFcRH5 cells, 4 C; St. Error 1.340
T2 construct: also called cyno FcRH5; cynoFcRH5
T2 chain: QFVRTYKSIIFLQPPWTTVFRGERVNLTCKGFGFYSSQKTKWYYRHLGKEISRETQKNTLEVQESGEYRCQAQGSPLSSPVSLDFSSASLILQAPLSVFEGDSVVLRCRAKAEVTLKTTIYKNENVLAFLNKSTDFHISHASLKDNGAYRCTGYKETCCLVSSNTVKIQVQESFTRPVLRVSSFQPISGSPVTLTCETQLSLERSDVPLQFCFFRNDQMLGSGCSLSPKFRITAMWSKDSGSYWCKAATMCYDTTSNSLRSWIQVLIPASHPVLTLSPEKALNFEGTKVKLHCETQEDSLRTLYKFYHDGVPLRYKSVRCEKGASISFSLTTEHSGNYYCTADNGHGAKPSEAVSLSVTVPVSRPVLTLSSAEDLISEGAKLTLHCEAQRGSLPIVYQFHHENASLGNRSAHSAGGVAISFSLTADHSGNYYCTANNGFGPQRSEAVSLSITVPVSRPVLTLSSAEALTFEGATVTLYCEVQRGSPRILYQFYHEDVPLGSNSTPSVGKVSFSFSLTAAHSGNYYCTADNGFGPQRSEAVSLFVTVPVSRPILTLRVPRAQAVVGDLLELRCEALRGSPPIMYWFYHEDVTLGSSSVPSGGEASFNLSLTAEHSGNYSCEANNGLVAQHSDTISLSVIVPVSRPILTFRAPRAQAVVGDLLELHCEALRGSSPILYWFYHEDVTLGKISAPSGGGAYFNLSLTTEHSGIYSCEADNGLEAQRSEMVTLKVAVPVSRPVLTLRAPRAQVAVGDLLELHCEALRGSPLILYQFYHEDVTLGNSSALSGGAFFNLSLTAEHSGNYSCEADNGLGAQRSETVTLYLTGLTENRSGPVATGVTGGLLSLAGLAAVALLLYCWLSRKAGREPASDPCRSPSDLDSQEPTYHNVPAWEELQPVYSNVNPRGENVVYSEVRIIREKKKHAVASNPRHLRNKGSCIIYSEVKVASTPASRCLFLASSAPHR
Protocol: as §1, §2

[3] = molecular target: T1, human FcRH5 on stably transfected cells …; test: Scatchard, 125I-labelled antibody competed with the unlabelled same antibody on BJAB.huFcRH5 cells, 4 C; St. Error 0.046
[4] = molecular target: T2, cynomolgus FcRH5 on stably transfected …; test: Scatchard, 125I-labelled antibody competed with the unlabelled same antibody on SVT2.cyFcRH5 cells, 4 C; St. Error 0.530
Protocol: as §1, §2

[5] = molecular target: T1, human FcRH5 on stably transfected cells …; test: Scatchard, 125I-labelled antibody competed with the unlabelled same antibody on BJAB.huFcRH5 cells, 4 C; St. Error 0.007
[6] = molecular target: T2, cynomolgus FcRH5 on stably transfected …; test: Scatchard, 125I-labelled antibody competed with the unlabelled same antibody on SVT2.cyFcRH5 cells, 4 C; St. Error 0.027
[7] = molecular target: T3, human FcRH5 (PRO52387; FcRH5c/IRTA2c), antigen as used in Biacore and in hybridoma screening (human, UniProt Q96RD9 16-851, limits assumed); test: SPR (Biacore 2000), IgG captured on anti-murine IgG chip, FcRH injected, 1:1 Langmuir fit, 25 C
T3 construct: The Biacore text only says that 'various FcRHs were injected'; also called Hu antigen; FcRH5/IRTA2
T3 chain: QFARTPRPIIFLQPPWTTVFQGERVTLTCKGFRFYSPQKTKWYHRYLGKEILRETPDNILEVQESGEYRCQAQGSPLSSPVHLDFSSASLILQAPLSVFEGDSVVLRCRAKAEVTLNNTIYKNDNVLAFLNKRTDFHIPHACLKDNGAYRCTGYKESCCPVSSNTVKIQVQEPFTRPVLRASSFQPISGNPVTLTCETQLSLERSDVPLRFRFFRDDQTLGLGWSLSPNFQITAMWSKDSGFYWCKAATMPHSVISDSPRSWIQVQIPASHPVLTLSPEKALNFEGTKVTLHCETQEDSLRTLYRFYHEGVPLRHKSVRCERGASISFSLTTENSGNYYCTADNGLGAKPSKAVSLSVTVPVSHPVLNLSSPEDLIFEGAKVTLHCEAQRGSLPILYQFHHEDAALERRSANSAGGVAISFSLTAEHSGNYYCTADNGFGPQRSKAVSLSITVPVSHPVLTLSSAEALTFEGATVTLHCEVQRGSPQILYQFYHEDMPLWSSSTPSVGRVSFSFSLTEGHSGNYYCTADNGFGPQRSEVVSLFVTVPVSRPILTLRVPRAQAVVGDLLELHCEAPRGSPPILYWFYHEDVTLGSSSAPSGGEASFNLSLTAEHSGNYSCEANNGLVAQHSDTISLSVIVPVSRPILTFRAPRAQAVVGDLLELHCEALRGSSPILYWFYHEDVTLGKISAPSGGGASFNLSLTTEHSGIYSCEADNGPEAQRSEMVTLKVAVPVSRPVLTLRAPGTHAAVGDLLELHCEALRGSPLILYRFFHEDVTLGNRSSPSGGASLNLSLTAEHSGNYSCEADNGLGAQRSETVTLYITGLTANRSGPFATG
Protocol: The FcRH-binding affinities of IgGs were calculated from association and dissociation rate constants measured using a Biacore 2000 surface plasmon resonance system (BIAcore, Inc.). […] Briefly, for each cycle of kinetic analysis, 5 ul of 100 nM IgG was captured on the chip, two-fold serial dilution of various FcRHs were injected at a flow rate of 20 ul/min for 150 sec. Antigen dissociation was monitored for 180 sec before regeneration. Equilibrium dissociation constants at 25° C. were calculated by fitting the data with a 1:1 Langmuir binding model. Running buffer was PBS with 0.05% Tween-20.

[8] = molecular target: T2, cynomolgus FcRH5 on stably transfected …; test: Scatchard, 125I-labelled antibody competed with the unlabelled same antibody on SVT2.cyFcRH5 cells, 4 C; St. Error 0.022
Protocol: as §1, §2

[9] = molecular target: T2, cynomolgus FcRH5 on stably transfected …; test: Scatchard, 125I-labelled antibody competed with the unlabelled same antibody on SVT2.cyFcRH5 cells, 4 C; St. Error 0.000
Protocol: as §1, §2

[10] = molecular target: T1, human FcRH5 on stably transfected cells …; test: Scatchard, 125I-labelled antibody competed with the unlabelled same antibody on OPM2.huFcRH5 cells, 4 C; St. Error 0.050
Protocol: as §1, §2

B1: humanized anti-FcRH5 antibody 10A8 version 1 (antibody, human IgG1, V domains shown)
VH: EVQLVESGGGLVQPGGSLRLSCAASGFTFSSYAVSWVRQAPGKGLEWVATISSGGSLTFYLDSVRGRFTISRDNSKNTLYLQMNSLRAEDTAVYYCARPIPDYYALDYWGQGTLVTVSS
VL: DIQMTQSPSSLSASVGDRVTITCKASQDVSTAVAWYQQKPGKAPKLLIYSASYRYTGVPSRFSGSGSGTDFTLTISSLQPEDFATYYCQQHFSSPRTFGQGTKVEIKR
notes: Full-length human IgG1 with a human kappa constant domain; also called hu10A8 v1; hu10A8
Kd [1]: 1.44 nM | Kd [2]: 3.04 nM

B2: murine anti-FcRH5 (10A8) monoclonal antibody (antibody, V domains shown)
VH: EVQLVESGGGLVKPGGSLKISCAASGFTFSSYAVSWVRQTPEKRLEWVATISSGGSLTFYLDSVRGRFTISRDNAKNTLYLQMSSLRSEDTAMYYCARPIPDYYALDYWGQGTSVTVSS
VL: DIVMTQSHKFMSTSVRDRVSITCKASQDVSTAVAWYQQKPGQSPKLLIYSASYRYTGVPDRFTGSGSGTDFTFTISSVQAEDLAVYYCQQHFSSPRTFGGGTKVEIKR
notes: Murine IgG from a hybridoma, detected with anti-mouse IgG1 in FACS; also called mu10A8; MA10A8
Kd [3]: 0.44 nM | Kd [4]: 2.74 nM

B3: murine anti-FcRH5-6H1 monoclonal antibody (antibody)
chain 1: DIVMTQSHKFMSTSVRDRVSITCKASQDVSTAVAWYQQKPGQSPKLLIYSASYRYTGVPDRFTGSGSGTDFTFTISSVQAEDLAVYYCQQHFSSPRTFGGGTKVEIKR
chain 2: EVQLVESGGGLVKPGGSLKISCAASGFTFSSYAVSWVRQTPEKRLEWVATISSGGSLTFYLDSVRGRFTISRDNAKNTLYLQMSSLRSEDTAMYYCARPIPDYYALDYWGQGTSVTVSS
Kd [5]: 0.19 nM | Kd [6]: 0.38 nM

B4: murine anti-FcRH5-7D11 monoclonal antibody (antibody, V domains shown)
VH: EVQLVESGGGLVQPGGSLKLSCAASGFTFSSYGMSWVRQTPDKRLELVATITRNGGTTYYLDSVKGRFTISRDNAKNTLYLQMSSLKSEDTAMYYCARGPIYYDYGYAMDYWGQGTTVTVSS
VL: DILLTQSPAILSVSPGERVSFSCRSSQSIGTNIHWYQQRTNGSPRLLIKFASESLSGIPSRFSGSGSGTDFTLSINSVESEDFADYYCQQSNSWPLTFGAGTKVEIK
notes: Murine IgG from a hybridoma; parent of ch7D11; also called 7D11.1.1; mu7D11
Kd [7]: 6 nM

B5: chimeric anti-human FcRH5 antibody 10A8 (antibody)
heavy: not shown
light: DIVMTQSHKFMSTSVRDRVSITCKASQDVSTAVAWYQQKPGQSPKLLIYSASYRYTGVPDRFTGSGSGTDFTFTISSVQAEDLAVYYCQQHFSSPRTFGGGTKVEIKRTVAAPSVFIFPPSDEQLKSGTASVVCLLNNFYPREAKVQWKVDNALQSGNSQESVTEQDSKDSTYSLSSTLTLSKADYEKHKVYACEVTHQGLSSPVTKSFNRGEC
notes: Murine 10A8 variable domains on human IgG1 and kappa constant domains; also called ch10A8; chMAFcRH5 (10A8)
Kd [8]: 0.98 nM

B6: cysteine engineered chimeric anti-FcRH5 10A8, heavy chain A118C (antibody, human IgG1, kappa, name in EU numbering)
heavy: not shown
light: DIVMTQSHKFMSTSVRDRVSITCKASQDVSTAVAWYQQKPGQSPKLLIYSASYRYTGVPDRFTGSGSGTDFTFTISSVQAEDLAVYYCQQHFSSPRTFGGGTKVEIKRTVAAPSVFIFPPSDEQLKSGTASVVCLLNNFYPREAKVQWKVDNALQSGNSQESVTEQDSKDSTYSLSSTLTLSKADYEKHKVYACEVTHQGLSSPVTKSFNRGEC
notes: It is built here from the ch10A8 chains plus the stated A118C change; also called thio-ch10A8.HC; thio-ch10A8-HC(A118C)
Kd [9]: 1.57 nM | Kd [10]: 0.85 nM
